Assays:
[1] = biological target: human VEGFR-2 alkaline phosphatase (human) (UniProt P35968); assay: ELISA: plate coated with huVEGFR-2-AP 100 ng/well, goat anti-human kappa-HRP, O.D. 450
[2] = biological target: human VEGFR-2 alkaline phosphatase (human) (UniProt P35968); assay: ELISA: antibody dilutions on plate coated with 1 µg/ml human VEGFR-2 alkaline phosphatase, HRP secondary, O.D. 450
[3] = biological target: native VEGFR-1 expressed on the cell surface (human) (UniProt P17948); assay: flow cytometry on PAE-VEGFR-1 cells, FITC goat anti-human IgG
native VEGFR-1 expressed on the cell surface (human), sequence (P17948 27-1338): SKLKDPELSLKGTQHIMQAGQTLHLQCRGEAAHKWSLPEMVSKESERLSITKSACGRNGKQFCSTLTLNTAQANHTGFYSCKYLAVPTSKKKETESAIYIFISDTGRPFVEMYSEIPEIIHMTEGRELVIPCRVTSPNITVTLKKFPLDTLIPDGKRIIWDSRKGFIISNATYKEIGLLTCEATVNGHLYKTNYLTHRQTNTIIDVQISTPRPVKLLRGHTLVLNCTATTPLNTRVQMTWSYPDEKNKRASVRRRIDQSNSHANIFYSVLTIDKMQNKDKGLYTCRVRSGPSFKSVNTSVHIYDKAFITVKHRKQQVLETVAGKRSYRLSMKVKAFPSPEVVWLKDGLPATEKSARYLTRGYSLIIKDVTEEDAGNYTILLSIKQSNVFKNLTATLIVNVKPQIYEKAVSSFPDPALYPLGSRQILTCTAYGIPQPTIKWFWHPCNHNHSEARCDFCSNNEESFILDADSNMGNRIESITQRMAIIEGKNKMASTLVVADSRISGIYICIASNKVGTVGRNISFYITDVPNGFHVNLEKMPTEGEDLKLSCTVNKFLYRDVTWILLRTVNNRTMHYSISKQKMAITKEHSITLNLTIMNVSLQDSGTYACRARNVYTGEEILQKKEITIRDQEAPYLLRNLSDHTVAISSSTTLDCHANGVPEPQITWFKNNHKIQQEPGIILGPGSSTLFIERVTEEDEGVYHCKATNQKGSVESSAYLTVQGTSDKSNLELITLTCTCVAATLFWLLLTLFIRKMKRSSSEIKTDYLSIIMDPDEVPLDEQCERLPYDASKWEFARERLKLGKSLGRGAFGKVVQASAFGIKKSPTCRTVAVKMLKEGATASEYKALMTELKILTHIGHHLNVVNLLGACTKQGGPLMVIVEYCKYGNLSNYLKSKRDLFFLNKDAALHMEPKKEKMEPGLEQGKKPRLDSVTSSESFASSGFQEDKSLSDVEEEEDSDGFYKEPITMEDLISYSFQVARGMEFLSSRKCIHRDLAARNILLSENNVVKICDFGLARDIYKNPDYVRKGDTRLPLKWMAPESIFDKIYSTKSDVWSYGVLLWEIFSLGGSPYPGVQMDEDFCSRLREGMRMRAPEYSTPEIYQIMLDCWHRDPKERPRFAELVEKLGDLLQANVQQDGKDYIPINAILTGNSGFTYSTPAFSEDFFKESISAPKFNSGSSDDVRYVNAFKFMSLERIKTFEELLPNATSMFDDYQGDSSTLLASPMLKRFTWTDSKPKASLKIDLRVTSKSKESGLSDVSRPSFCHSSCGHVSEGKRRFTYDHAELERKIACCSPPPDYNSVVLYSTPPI

mouse VEGFR-1-AP (mouse) = mouse VEGFR-1-AP (mouse) (UniProt P35969); assay: ELISA: plate coated with mouse VEGFR-1-AP 100 ng/well, goat anti-rat IgG-HRP, O.D. 450
mouse VEGFR-1-AP (mouse), sequence (P35969 23-759): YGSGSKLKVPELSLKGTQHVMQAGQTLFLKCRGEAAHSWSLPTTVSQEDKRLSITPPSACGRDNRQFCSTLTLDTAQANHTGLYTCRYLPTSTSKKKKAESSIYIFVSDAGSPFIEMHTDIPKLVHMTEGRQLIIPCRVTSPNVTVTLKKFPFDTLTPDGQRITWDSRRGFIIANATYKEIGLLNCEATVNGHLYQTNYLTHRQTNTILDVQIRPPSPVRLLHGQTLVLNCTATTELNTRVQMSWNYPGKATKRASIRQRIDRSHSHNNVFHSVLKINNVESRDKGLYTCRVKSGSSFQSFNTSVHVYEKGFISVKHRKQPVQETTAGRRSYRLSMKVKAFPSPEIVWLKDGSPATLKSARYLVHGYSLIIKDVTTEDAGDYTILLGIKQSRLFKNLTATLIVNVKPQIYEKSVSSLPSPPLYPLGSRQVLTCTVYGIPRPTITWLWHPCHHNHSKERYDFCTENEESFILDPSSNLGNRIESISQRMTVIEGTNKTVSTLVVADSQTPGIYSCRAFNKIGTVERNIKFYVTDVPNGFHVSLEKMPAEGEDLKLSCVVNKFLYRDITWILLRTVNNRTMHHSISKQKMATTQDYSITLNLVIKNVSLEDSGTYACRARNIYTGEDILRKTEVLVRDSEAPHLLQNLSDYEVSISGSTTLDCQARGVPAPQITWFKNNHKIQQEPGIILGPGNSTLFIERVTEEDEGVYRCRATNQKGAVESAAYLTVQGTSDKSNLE

mouse VEGFR-1 Fc (mouse) = mouse VEGFR-1 Fc (mouse) (UniProt P35969); assay: ELISA: antibody dilutions on plate coated with 1 µg/ml mouse VEGFR-1 Fc, HRP secondary, O.D. 450
mouse VEGFR-1 Fc (mouse), sequence (P35969 23-759 limits assumed): as the sequence (P35969 23-759) above

human VEGFR-2 alkaline phosphatase (human), sequence (P35968 20-764): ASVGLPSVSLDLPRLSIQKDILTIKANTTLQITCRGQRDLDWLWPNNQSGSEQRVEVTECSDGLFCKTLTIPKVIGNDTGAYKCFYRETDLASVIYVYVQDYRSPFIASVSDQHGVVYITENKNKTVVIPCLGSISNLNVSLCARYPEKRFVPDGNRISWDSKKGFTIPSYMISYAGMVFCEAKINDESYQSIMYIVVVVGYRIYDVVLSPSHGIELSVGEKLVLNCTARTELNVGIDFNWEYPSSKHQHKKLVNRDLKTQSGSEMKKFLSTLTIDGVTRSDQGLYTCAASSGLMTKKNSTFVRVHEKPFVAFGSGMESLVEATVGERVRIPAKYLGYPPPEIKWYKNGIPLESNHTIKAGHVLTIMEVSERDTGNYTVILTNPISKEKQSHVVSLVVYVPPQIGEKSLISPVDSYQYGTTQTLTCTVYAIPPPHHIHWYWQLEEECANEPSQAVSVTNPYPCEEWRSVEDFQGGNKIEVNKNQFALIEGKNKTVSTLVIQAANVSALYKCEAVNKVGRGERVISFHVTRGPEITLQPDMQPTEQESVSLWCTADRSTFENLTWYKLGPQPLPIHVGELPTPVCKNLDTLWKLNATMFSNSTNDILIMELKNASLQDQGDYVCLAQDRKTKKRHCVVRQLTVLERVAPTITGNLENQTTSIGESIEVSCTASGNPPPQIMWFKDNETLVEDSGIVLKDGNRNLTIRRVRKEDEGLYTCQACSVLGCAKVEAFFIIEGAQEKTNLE

1C11 (antibody)
EC50 (read off the curve) [1]: 8 ng/mL | EC50 (read off the curve) [2]: 8 ng/mL

Control IgG (antibody)
MFI [3]: 2.6

rat anti-mouse VEGFR-1 antibody MF1
EC50 (read off the curve) (mouse VEGFR-1-AP (mouse)): 0.8 ng/mL | EC50 (read off the curve) (mouse VEGFR-1 Fc (mouse)): 0.8 ng/mL
